From US20220195455

Tests used:
[1] = target: T1, Src8(G2A) mutant octapeptide Ala-Ser-Asn-Lys-Ser-Lys-Pro-Lys
T1 chain: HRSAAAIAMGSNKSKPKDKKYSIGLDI

[2] = target: T2, LANCL2 octapeptide GETMSKRL
T2 chain: GETMSKRL

[3] = target: T3, LYN octapeptide GCIKSKGK
T3 chain: GCIKSKGK

[4] = target: T4, RNF11 octapeptide GNCLKSPT
T4 chain: GNCLKSPT

[5] = target: T5, NOL3 octapeptide GNAQERPS
T5 chain: GNAQERPS

[6] = target: T6, MARCKS octapeptide GAQFSKTA
T6 chain: GAQFSKTA

[7] = target: T7, ARF6 octapeptide GKVLSKIF
T7 chain: GKVLSKIF

[8] = target: T8, FYN octapeptide GCVQCKDK
T8 chain: GCVQCKDK

[9] = target: T9, RP2 octapeptide GCFFSKRR
T9 chain: GCFFSKRR

[10] = target: T10, YES1 octapeptide GCIKSKEN
T10 chain: GCIKSKEN

[11] = target: T11, MARCKSL1 octapeptide GSQSSKAP
T11 chain: GSQSSKAP

[12] = target: T12, LNP octapeptide GGLFSRWR
T12 chain: GGLFSRWR

[13] = target: T13, SCYL3 octapeptide GSENSALK
T13 chain: GSENSALK

[14] = target: T14, GNAZ octapeptide GCRQSSEE
T14 chain: GCRQSSEE

[15] = target: T15, ARL2 octapeptide GLLTILKK
T15 chain: GLLTILKK

[16] = target: T16, REP15 octapeptide GQKASQQL
T16 chain: GQKASQQL

[17] = target: T17, DDX46 octapeptide GRESRHYR
T17 chain: GRESRHYR

[18] = target: T18, ARL6 octapeptide GLLDRLSV
T18 chain: GLLDRLSV

[19] = target: T19, FRS2 octapeptide GSCCSCPD
T19 chain: GSCCSCPD

[20] = target: T20, NAA40 octapeptide GRKSSKAK
T20 chain: GRKSSKAK

[21] = target: T21, DEGS1 octapeptide GSRVSRED
T21 chain: GSRVSRED

[22] = target: T22, NDUFAF4 octapeptide GALVIRGI
T22 chain: GALVIRGI

[23] = target: T23, PSMC1 octapeptide GQSQSGGH
T23 chain: GQSQSGGH

[24] = target: T24, ZNRF2 octapeptide GAKQSGPA
T24 chain: GAKQSGPA

[25] = target: T25, NDUFB7 octapeptide GAHLVRRY
T25 chain: GAHLVRRY

B1: N-myristoyltransferase 1, full length (protein)
chain: MADESETAVKPPAPPLPQMMEGNGNGHEHCSDCENEEDNSYNRGGLSPANDTGAKKKKKKQKKKKEKGSETDSAQDQPVKMNSLPAERIQEIQKAIELFSVGQGPAKTMEEASKRSYQFWDTQPVPKLGEVVNTHGPVEPDKDNIRQEPYTLPQGFTWDALDLGDRGVLKELYTLLNENYVEDDDNMFRFDYSPEFLLWALRPPGWLPQWHCGVRVVSSRKLVGFISAIPANIHIYDTEKKMVEINFLCVHKKLRSKRVAPVLIREITRRVHLEGIFQAVYTAGVVLPKPVGTCRYWHRSLNPRKLIEVKFSHLSRNMTMQRTMKLYRLPETPKTAGLRPMETKDIPVVHQLLTRYLKQFHLTPVMSQEEVEHWFYPQENIIDTFVVENANGEVTDFLSFYTLPSTIMNHPTHKSLKAAYSFYNVHTQTPLLDLMSDALVLAKMKGFDVFNALDLMENKTFLEKLKFGIGDGNLQYYLYNWKCPSMGAEKVGLVLQ
**Q.** Which results are given for B1?
**A.** Km [1]: < 0.1 µM; Vmax [1]: 1 µM/min; Km [2]: 13 µM; Vmax [2]: 5.3 µM/min; Km [3]: 22.5 µM; Vmax [3]: 64.7 µM/min; Km [4]: 16.7 µM; Vmax [4]: 61.1 µM/min; Km [5]: 1.4 µM; Vmax [5]: 2 µM/min; Km [6]: 38.4 µM; Vmax [6]: 6.4 µM/min; Km [7]: 4.4 µM; Vmax [7]: 13.6 µM/min; Km [8]: 5.2 µM; Vmax [8]: 54.9 µM/min; Km [9]: 13.6 µM; Vmax [9]: 60.8 µM/min; Km [10]: 14.4 µM; Vmax [10]: 61 µM/min; Km [11]: 11.7 µM; Vmax [11]: 6.6 µM/min; Km [12]: 10.3 µM; Vmax [12]: 21.9 µM/min; Km [13]: 0.8 µM; Vmax [13]: 1.7 µM/min; Km [14]: 15.7 µM; Vmax [14]: 64.4 µM/min; Km [15]: 0.4 µM; Vmax [15]: 1.2 µM/min; Km [16]: 15.7 µM; Vmax [16]: 3.4 µM/min; Km [17]: < 0.1 µM; Vmax [17]: 2 µM/min; Km [18]: < 0.1 µM; Vmax [18]: 1.8 µM/min; Km [19]: 28.2 µM; Vmax [19]: 54.7 µM/min; Km [20]: 1.2 µM; Vmax [20]: 1.8 µM/min; Km [21]: 79.2 µM; Vmax [21]: 12.9 µM/min; Km [22]: 0.5 µM; Vmax [22]: 1.2 µM/min; Km [23]: 40 µM; Vmax [23]: 9.6 µM/min; Km [24]: 2 µM; Vmax [24]: 1.6 µM/min; Km [25]: 16.4 µM; Vmax [25]: 2.8 µM/min
